Laboratory results published in the supplement of paper PMC12455559.

Experiment: purified protein yield per well (BCA); higher = higher soluble expression
Summary of the method: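 The measured quantity is purified protein yield per well, determined with the Pierce Rapid Gold BCA kit. Anything below 25 ug (0.1 mg/mL) lies under the detection threshold. Enzymes were expressed in E. coli C41(DE3) in 2 mL autoinduction cultures with 100 µg/mL kanamycin at 37 °C for 2 h, then 18 °C for 40 h, and purified on an OT-2 robot using Ni-charged magnetic beads and SUMO protease release.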

For “QACDSLLLESITNPGPFIVNTIDESLGIRNGPGYNGGTIFYPDHIGNFSSIVLVPGFMNSEFTIQNWGAFFASHGIITMTIGTNALTDTHIQRRDALLDAIVSLKAENERLGSPLYGSIDTSSIAVGGFSKGGGGAMLVPAIDPNIKAIISLYPWLENPTSSDLNHSVPVIIISGELDLIAPPFIHADIHYNLLPNTTMKLKYEVALGSHDIISGPNAGNGEVGVRVISWLQNFLLDDSCYCPILTLIPNTSSSYTTNILCNNTSINISSFNTGSDKKLLKITDIFGRETKEILNKYLLFIYDDGTVEKNIVLE [TEP022]”, the “purified protein yield per well” value was < 25 µg.

For “CATAGSTTDSAPVSAASLSVDGAYEVRTYSDFPDVPEFGAATIYYPVGVPQPIGGVAIAPGFTEEQRHISWWGPRLASHGYAVLVLDTNERRERPDARASALIAGVTLLRAEGLRQGSPLFGGIDLAKMAIMGHSMGGGGALLAANEHSDQIRAAIPFTPWEPETNLGGVSAPTLVLAGAADGIAEVDEHAWRHFSMIPESTPKVYLEIAGGDHYIADTTRGTDLATVGRYAIAWLKLYVDRDERYRDFIYGE [TEP065]”, the “purified protein yield per well” value was < 25 µg.

For “ASPYERGPDPSRTSIEARRGPFAVTSTSVSDLSTPGFGSATITYPTSTAEGTYGAVAVSPGFTASESTIAWLGPRLASQGFVVITFNTQSRLDQPAARGDQLLAALDYLTQRSSTTIRSRIDPTRLAVIGHSMGGGGTLEAAKDRPSLQATVGLTPWNLDKSWPEIRTPSLVIGAESDTVAPVGSHAVPFYQSIPSSTAKAYLELNNASHFAPNTENTTIASSTISWLKLYVDDDDRYRQFLCPGPQSSVTGSVSDYRNTCTS [DP050]”, the “purified protein yield per well” value was < 25 µg.

With “SAPVHHRAATHTSAAAHHHAPFAVRTTVVPRTAVTKFGGGVIYAPLDTGKPVLGAVVITPGFTDTNANEKEMAELVASQGFVAFAIDTLTTDDLPDLRAAQMLAAADYLTGQSAVRSEVSQDDVGLIGYSFGGGGTMQAAQSRPSIKAAIGLMPFDFPPATDPNAMYPSYPKMTTPTLVITGQKDDVADPKDFGKPAYDSIPAGTPKQYLELAGIGHEGGQHVPSATIRNAVTAFLKRYLDGNSAYAKFICPAPKVGGPISASLSSCPKG [ESM131]” the “purified protein yield per well” value was < 25 µg.

With “QNPFERGPAPTTASLEASRGPFATSSFTVSRPSGYGAGTVYYPTNAGGTVGAIAIVPGYTARQSSINWWGPRLASHGFVVITIDTNSTLDQPSSRSRQQLAALDQVATLARTSSSPIYNKVDTTRMGVMGWSMGGGGSLISAENRPSLKAAAPQAPWNSSTNFSSVTVPTLIFACENDSIAATGSHASPMYNSMSRNPKQYLEINGGSHSCANSGNSNQALIGKKGVAWMKRYMDNDTRYTSFACANPNSTRVSDFRVARCS [ESM086]” the “purified protein yield per well” value was < 25 µg.

In the case of “QVANPYAKGPNPTEASVTATTGPFAVTTSNISSLVSGFGGGRLYYPTATNQGTYGAIALSPGFTAGWSSIDWLGPRLASFGFVVIGIETNSRYDYPPSRGEQLLAALDWAVEDSPAASRIDPTRLAVGGHSMGGGGSLEAASDRPSLKAVLPLAPWNSDKTWNEVQVPTLIIGGESDTVAPVGSHSTPFYNSLSGEKAFLELNNASHFFPQSPNNLVAKLAISWAKRWVDNDTRYSQFLCPGPASGGLSEVQAYRQTCPF [TEP096]”, the “purified protein yield per well” value is reported as < 25 µg.

In the case of “QTSAPTSASLNASSGPLSVSTASVTLPRGFGGGTIYYPTVAAKYGVIAISPGFTATQSSIAWLGRRIATHGFVVITINTNTTLDQPDSRATQLVAALNHVLNSSGTAVRSRIDPARLAVAGHSMGGGGSLIAARDNPTLKASYPMTPWNISSNFSTVRVPTMIIGADGDTVAPVGTHARPFYASLPSSTFKAYGELNGATHFAPNTTSTPIGRYAVAWMKRFVDGDTRYSPFLCGAQHTSYATGLVFDRYNQNCPY [ESM054]”, the “purified protein yield per well” value is reported as < 25 µg.

With “IRETRVSSSVRGFGGGTIYYPTGTSGTMGAIVVIPGFVSPESSIAWWGPKLASHGFVVMTIATNRTTDQPSSRATQINAALDYLISQNSTSGSPVRNMIDTDRLGVMGWSMGGGGTLRVASQNRLKAAIPLAPYDTISFRNVDAPTLIFGCESDTVAPVRNHASPFYNQIPAGTDKAFVELNGGSHTCANGGNQYLSLIHI [ESM057]” the “purified protein yield per well” value was < 25 µg.

For “QAAANPYERGPAPSVSSIEAARGSYAVSQTSVSSLGVTGFGGGTVYYPTSTADGTFGAVVISPGFTATQSSISWLGPRLASQGFVVFTIDTNSTLDQPDSRGRQLLAALDYLTERSSVRTRIDATRLGVMGHSMGGGGTLEAAKSRPSLQAAIPLTGWNTDKSWPELRTPTLVIGADGDTVAPVATHSEPFYTSLPSSLDKAYLELNGATHFTPNSSNTTIAKYSISWLKRFIDDDTRYEQFLCPLPRPSVTIEEYRGNCPHS [TEP116]”, the “purified protein yield per well” value was < 25 µg.

With “AADNPYERGPAPTVSSIEAARGSYAVSQTSVSSLSVSGFGGGTVYYPSSTADGTFGAVVISPGFTAYQSSIAWLGPRLASQGFVVFTIDTNTTLDQPDSRGRQLLAALDYLTKSSSVRGRVDASRLGVMGHSMGGGGSLEAAKSRTSLKAAIPLTGWNADKTWPELRTPTLVVGADGDTVAPVSSHSEPFYQSLPSTLDKAYLELNGATHFTPNSSNTTIAKYSISWLKRFIDNDTRYEQFLCPLPRPSLTIEEYRGNCPHGS [TEP044]” the “purified protein yield per well” value was < 25 µg.

In the case of “FRSRGATIFYPEEPSHPLASIVIVPGWSSSERSIRAWGPFLASHGMVTMTIGTNNPPRDFPEQRAAALLDAIATLRAENARDTSPIFEKLDLSRIAVGGWSMGGGGAQLAAVQDPALKAAIGLCPWHEAPDIFEHTVPLLIIGGEKDRRAPFNEHGLVHYCTTPPATPKLLFEVRDAGH [TEP100]”, the “purified protein yield per well” value is reported as < 25 µg.

For “STPVHHAAASYTSTAAHHHAPFAVRTTVVPKTAVTTFGGGVIYTPQDTGKPVLGAVVITPGFTDTNANEKEMAELVASQGFVAFAIDTLTTDDLPDLRATQMLAAADYLTGQSAVRSQVSKDDVGLIGYSFGGGGAMQAAQSRPSIKAAIGLMPFDFPPATDPDAMYPAYPHMTTPTLVITGQKDDVADPKDFGKPAYDSIPAGTPKQYLELTGLGHAAGQHVPVATIRTAVTAFLKRYLDGNSAYAKYICPAPKVGGPISASLSSCPKG [TEP069]”, the “purified protein yield per well” value was 25.8 µg.

In the case of “ADNPYERGPDPSWSSIEALRGPYTVDDTSVSRWVSGFGGGTIYYPDTTRDGDFGAAVISPGYTGTQSSIDWLGPRLASQGFVVLTIDTNSVYDQPDSRADQLQAALDYLTGSSDVADRIDPDRLALMGHSMGGGGTLRAVDDDPSIKAAIPMTPWHIKKNWSSVSTPTLIFGAERDSIAPHETHAEPFYDSLSRSLPKAYLELNNASHFAPNSSNTEIASISIAWLKRFVDDDTRYEQFVCPGPSGYAIEKYESSCPF [TEP128]”, the “purified protein yield per well” value is reported as < 25 µg.

In the case of “MASITNPGPYSVSLLIEGVDDIRNGPDYDGATIYYPSNGVPPYAGIAIIPGYCGVETDIENWGPFYASHGIIAITLGTNNPCADWPAVRALALLDAIETIKSENTREGSPLNGKVDVNSFAVSGWSMGGGGAELAASIDPSLKAVVGLCPWLDLNGFETSDLIHDVPVLIFTGQNDDIAGSAEYGYMHYTNTPNSTDKLYFEIENEGHEAANAPNMAGGEKGIYALSWLTI [TEP051]”, the “purified protein yield per well” value is reported as < 25 µg.

In the case of “QTTAPTSASLNASAGPLSVSTASVTAPRGFGGGTIYYPTTQARYGVIAISPGFTATQTSIAWLGRRIATHGFVVITLNTLTTLDQPDSRANQLMAALNHVINSSSSAVKARIDTSRLAVAGHSMGGGGALIAARDNPSLKASYPLTPWNINSAFSTVRVPTMIVGADGDTVAPVGTHARPFYAALPGATSKAYGELNGATHFSPNSTNTPIGRYGVAWMKRFLDGDTRYSTFLCGTEHTRYATALVFDRYNQNCPY [ESM122]”, the “purified protein yield per well” value is reported as < 25 µg.

For “ADNPFERGPDPSESSIEAYRGAYSVSEQSVSRWVSGFGGGTIHYPTTRSDGTFGAVVVSPGYTGTESSISWLGPRLASQGFVVLTMVTNSIYDYPDSRARQLQAALDYLTSSSSGVADRIDPDRLALMGHSMGGGGTLRAVSENPDIKAAIPMTPWHTDKTWREVTTPTLIFGAENDTVAPHYSHAEPFYDSLPSSLEKVYLELDGASHFAPNYSNTTIAKYSISWLKRFVDDDTRYSQFLCPGPSFWDGDVQTYESTCDF [TEP197]”, the “purified protein yield per well” value was < 25 µg.

In the case of “AQPQKGPDPTEQLVKSQTGPFDIARTSVPAGSGRGFNKGTLYYPTDTSQGAYAAVAVIPGFFEGEYTQSWFGPALASHGFVVFTLETHGLFDFPDQRGDQLIAALDWLVASSPVKDRVDPARLAVMGHSMGGGGTLAAANKRPSIKAAVALTPWHMTKRFPGIEAATMIIGAQSDSIASVSGHAEPMYAALTSPDEHAYVELTGGHFVTNSYTATNMRFILPWLKRFLDSDTRYSPFVCPGPAQDSTFVEYRNTCPV [TEP047]”, the “purified protein yield per well” value is reported as < 25 µg.

With “MSATRGTFATAQLSVPAGNGFGGGVIYYPTDTSQGTFGGVAIVPGYSALFANEEAWMGPWLASFGFVVIGIETNSRTDGADARATQLLAALDYLTQRSSVRDRVDSSRLSVVGHSAGGAGVILATGQRPSLKAAVGLAPGSPTGNLSLANDRVPMMFISGQRDTTVTQSYLNGLYTTLPASTPSAWVEITGVDHLFATRANTTEMRTLIPWLKIFVDNDTRYTQFLCPLMDSSNISMYRNKCPYVPPGGPSPSPSPSPSPSPSPSPSPSPSPSPSPSPSPSPSPSPSPSPSAGACTASYRTTNSWPGGHQGEVTVTAGGSAISGWTVRWTLGSGQTVSQVWNGTLSVSGSTVTVTNASYNGSLPASGSTTFGFLGTGTASAPSLTCTSRP [ESM002]” the “purified protein yield per well” value was < 25 µg.

In the case of “DEIGQAPTPSNITGSGSFSTTSSTITGQSGFGGGTVYYPTASGKYPVVAMVPGFLSDWSSISWLGPRVASWGFVVVGANTNSGLDDPTSRGDQLLAALNWAVNSSPTAVRGKTDGTRRGVAGWSMGGGGTLEALAKDTSGVVKAGVPLAPWHNDKSWNQVNEPVFLIGGENDGVASPDSHAIPFYNSLGGPKSFLERAGANHFFPNSSDPTVSRAVVSFLKRHVSADNRFSPYVCGFSGSAVSDFRSNSC [ESM133]”, the “purified protein yield per well” value is reported as < 25 µg.

In the case of “QVGPTPTSSSLNVTAGPFAVSSSRVFSPRGFGGGTIYYPTTSGQYGVVAMSPGFTATESSIAWLGRRLATHGLVVITINTNSTYDQPASRATQLMAALNHVLNSASSTVRSRVDSSKLAVAGHSMGGGGALIAAQNNPTLKAALPLTPWNTSTRFDGVRVPTLIVGADGDSVARVASHARPFYASLPATTFKAYAELNGASHFAPNSTNTPIGRYGVAWMKRFVDADTRYSPFLCGAAHDAYATSAVFDRYNDNCPY [ESM085]”, the “purified protein yield per well” value is reported as < 25 µg.

With “DEIGQAPTSSNITGNGSFSVSTYNISSLVSGFGGGVAYYPTTSGRYPVVAVSPGFTARWSSISWIGPRLASWGFVVVGIETNGLYDQPASRGSQLLAALNWAVNSAPSAITSRADGSRRGVAGHSMGGGGTLEALAADTTGNVKAGVPIAPWNSDKTWSGINEAVQIVGGESDTIASVGSHSIPFYNSVSGPKSYVELNGASHFFPQSTNSTLSRALVSWFKRYLNQDARFTPFTCGYGGTAVSDFRTNAC [ESM151]” the “purified protein yield per well” value was < 25 µg.
